Tests used:
[1] = target: Anti-CD28 Fab (SEQ ID NOs: 696, 697); assay: phage binding ELISA; biotinylated anti-CD28 Fab on neutravidin plate, clonal phage supernatant, anti-M13 HRP detection;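 also: wells pretreated with blocking buffer, either plus or minus CD28 antigen, then given crude phage supernatant briefly without washing in between, then washed before anti-M13 HRP readout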
[2] = target: Anti-CD28 Fab (SEQ ID NOs: 696, 697); assay: phage binding ELISA; Fab-coated wells pre-incubated with saturating CD28 antigen as competitor, anti-M13 HRP detection
[3] = target: T1, Anti-CD28 Fab (SEQ ID NOs: 696, 697); assay: phage binding ELISA; Fab-coated wells pre-incubated with CD28 antigen as competitor, phage detected with anti-M13-HRP
T1 construct: In the phage ELISA the Fab was biotinylated and captured on neutravidin coated plates

[4] = target: T1, Anti-CD28 Fab (SEQ ID NOs: 696, 697); assay: phage binding ELISA; biotinylated anti-CD28 Fab on neutravidin plate, clonal phage detected with anti-M13-HRP;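 also: crude clonal phage supernatants added briefly to wells preincubated in blocking buffer with or without CD28 antigen, then washed before detection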
[5] = target: T2, Anti-PSMA Fab (SEQ ID NOs: 19, 20); assay: phage binding ELISA on PSMA Fab coated plates; competitor: PSMA antigen
T2 construct: Biotinylated Fab captured on neutravidin coated plates in the phage ELISA; also called 006 PSMA Fab

[6] = target: T2, Anti-PSMA Fab (SEQ ID NOs: 19, 20); assay: phage binding ELISA; clonal phage on biotinylated PSMA Fab captured on neutravidin plates, anti-M13 HRP detection
[7] = target: T3, Anti-PSMA Fab (SEQ ID NOs: 19, 20); assay: phage binding ELISA on captured anti-PSMA Fab; PSMA antigen as competitor
T3 construct: Biotinylated and captured on neutravidin coated plates in the phage ELISA; also called 006 PSMA Fab

[8] = target: T3, Anti-PSMA Fab (SEQ ID NOs: 19, 20); assay: phage binding ELISA; biotinylated anti-PSMA Fab captured on neutravidin, bound phage detected with anti-M13 HRP

For PCSAGVTYAWLYCV (also called Peptide-92 library clone) [Phage-1587], the “Anti-CD28 Fab (SEQ ID NOs: 696, 697) signal” value [1] was 1.41 and the “Anti-CD28 Fab signal in the presence of CD28” value (“Anti-CD28 Fab signal” for short) [2] was 0.06.

With MCAAGAAWAWPLCL (also called Peptide-92 library clone) [Phage-1588] the “Anti-CD28 Fab (SEQ ID NOs: 696, 697) signal” value [1] was 1.4 and the “Anti-CD28 Fab signal” value [2] was 0.07.

For TCAAGASYPWPLCV (also called Peptide-92 library clone) [Phage-1589], the “Anti-CD28 Fab (SEQ ID NOs: 696, 697) signal” value [1] was 1.4 and the “Anti-CD28 Fab signal” value [2] was 0.06.

LCAAGFMYEWPLCF (also called Peptide-92 library clone) [Phage-1590] was tested, and the “Anti-CD28 Fab (SEQ ID NOs: 696, 697) signal” value [1] was 1.4 and the “Anti-CD28 Fab signal” value [2] was 0.06.

For TCAAGATWVWPTCF (Peptide-92 library clone) [Phage-1675], the “Anti-CD28 Fab signal” value [3] was 0.07 and the “Anti-CD28 Fab (SEQ ID NOs: 696, 697) signal” value [4] was 0.92.

For TCSAGAMYNWPECF (Peptide-92 library clone) [Phage-1676], the “Anti-CD28 Fab signal” value [3] was 0.08 and the “Anti-CD28 Fab (SEQ ID NOs: 696, 697) signal” value [4] was 0.92.

In the case of TCSAGAMYSWPLCI (Peptide-92 library clone) [Phage-1677], the “Anti-CD28 Fab signal” value [3] is reported as 0.08 and the “Anti-CD28 Fab (SEQ ID NOs: 696, 697) signal” value [4] is reported as 0.91.

With QCAAGFSYTWPECY (Peptide-92 library clone) [Phage-1678] the “Anti-CD28 Fab signal” value [3] was 0.11 and the “Anti-CD28 Fab (SEQ ID NOs: 696, 697) signal” value [4] was 0.9.

WCAAFFHYPWPQCF (Peptide-92 library clone) [Phage-1679] was tested, and the “Anti-CD28 Fab signal” value [3] was 0.05 and the “Anti-CD28 Fab (SEQ ID NOs: 696, 697) signal” value [4] was 0.87.

For RCKAGVPYKWPMCL (Peptide-92 library clone) [Phage-1680], the “Anti-CD28 Fab signal” value [3] was 0.06 and the “Anti-CD28 Fab (SEQ ID NOs: 696, 697) signal” value [4] was 0.87.

TCAAGATYEWPSCI (Peptide-92 library clone) [Phage-1681] was tested, and the “Anti-CD28 Fab signal” value [3] was 0.09 and the “Anti-CD28 Fab (SEQ ID NOs: 696, 697) signal” value [4] was 0.86.

With TCAAGAKYVWPLCF (Peptide-92 library clone) [Phage-1682] the “Anti-CD28 Fab signal” value [3] was 0.12 and the “Anti-CD28 Fab (SEQ ID NOs: 696, 697) signal” value [4] was 0.85.

LCEAGFNYDWPRCL (Peptide-92 library clone) [Phage-1683] was tested, and the “Anti-CD28 Fab signal” value [3] was 0.07 and the “Anti-CD28 Fab (SEQ ID NOs: 696, 697) signal” value [4] was 0.85.

TCAAGASWDWPFCF (Peptide-92 library clone) [Phage-1684] was tested, and the “Anti-CD28 Fab signal” value [3] was 0.08 and the “Anti-CD28 Fab (SEQ ID NOs: 696, 697) signal” value [4] was 0.82.

For ECGWEPGQHWRVCF (Peptide-92 library clone) [Phage-1685], the “Anti-CD28 Fab signal” value [3] was 0.06 and the “Anti-CD28 Fab (SEQ ID NOs: 696, 697) signal” value [4] was 0.82.

With SCAAGATYEWPTCL (Peptide-92 library clone) [Phage-1686] the “Anti-CD28 Fab signal” value [3] was 0.07 and the “Anti-CD28 Fab (SEQ ID NOs: 696, 697) signal” value [4] was 0.81.

With SCAAGATYKWPACF (Peptide-92 library clone) [Phage-1687] the “Anti-CD28 Fab signal” value [3] was 0.06 and the “Anti-CD28 Fab (SEQ ID NOs: 696, 697) signal” value [4] was 0.8.

With SCSAGAMWLWPECF (Peptide-92 library clone) [Phage-1688] the “Anti-CD28 Fab signal” value [3] was 0.06 and the “Anti-CD28 Fab (SEQ ID NOs: 696, 697) signal” value [4] was 0.8.

For WCSAVFSYQWPPCF (Peptide-92 library clone) [Phage-1689], the “Anti-CD28 Fab signal” value [3] was 0.06 and the “Anti-CD28 Fab (SEQ ID NOs: 696, 697) signal” value [4] was 0.78.

With LCQWYPKFHWMDCD (also called Peptide-210) [Phage-1760] the “Anti-PSMA Fab signal in the presence of PSMA” value (“Anti-PSMA Fab signal” for short) [5] was 0.0695 and the “Anti-PSMA Fab (SEQ ID NOs: 19, 20) signal” value [6] was 0.611.

With HCEFHDYQSCDVLY [Phage-1761] the “Anti-PSMA Fab signal” value [5] was 0.126 and the “Anti-PSMA Fab (SEQ ID NOs: 19, 20) signal” value [6] was 1.89.

HCKFHDYHSWYVCY [Phage-1762] was tested, and the “Anti-PSMA Fab signal” value [5] was 0.0994 and the “Anti-PSMA Fab (SEQ ID NOs: 19, 20) signal” value [6] was 2.31.

In the case of LCEWWTSHVDAWCA [Phage-1763], the “Anti-PSMA Fab signal” value [5] is reported as 0.184 and the “Anti-PSMA Fab (SEQ ID NOs: 19, 20) signal” value [6] is reported as 0.575.

For WEKLCTPAWMCVGF [Phage-1764], the “Anti-PSMA Fab signal” value [5] was 0.105 and the “Anti-PSMA Fab (SEQ ID NOs: 19, 20) signal” value [6] was 2.44.

In the case of LEKLCIPAWMCEWL [Phage-1765], the “Anti-PSMA Fab signal” value [5] is reported as 0.184 and the “Anti-PSMA Fab (SEQ ID NOs: 19, 20) signal” value [6] is reported as 2.4.

VLKWCRPAWMCEVL [Phage-1766] was tested, and the “Anti-PSMA Fab signal” value [5] was 0.219 and the “Anti-PSMA Fab (SEQ ID NOs: 19, 20) signal” value [6] was 2.38.

For VGKLCVPEWMCVGL [Phage-1767], the “Anti-PSMA Fab signal” value [5] was 0.063 and the “Anti-PSMA Fab (SEQ ID NOs: 19, 20) signal” value [6] was 2.25.

With FVPLCKPAWMCSFV [Phage-1768] the “Anti-PSMA Fab signal” value [5] was 0.111 and the “Anti-PSMA Fab (SEQ ID NOs: 19, 20) signal” value [6] was 2.2.

In the case of HVKLCKPAWMCQGL [Phage-1769], the “Anti-PSMA Fab signal” value [5] is reported as 0.0831 and the “Anti-PSMA Fab (SEQ ID NOs: 19, 20) signal” value [6] is reported as 2.18.

For FEKLCVPKWMCEGI (also called Peptide-220) [Phage-1770], the “Anti-PSMA Fab signal” value [5] was 0.0601 and the “Anti-PSMA Fab (SEQ ID NOs: 19, 20) signal” value [6] was 2.17.

For IDKLCIPFWMCENL [Phage-1771], the “Anti-PSMA Fab signal” value [5] was 0.0699 and the “Anti-PSMA Fab (SEQ ID NOs: 19, 20) signal” value [6] was 2.16.

For FEKWCTPPWMCSLF [Phage-1772], the “Anti-PSMA Fab signal” value [5] was 0.203 and the “Anti-PSMA Fab (SEQ ID NOs: 19, 20) signal” value [6] was 2.11.

In the case of DLRLCKPAWMCYFI [Phage-1773], the “Anti-PSMA Fab signal” value [5] is reported as 0.0751 and the “Anti-PSMA Fab (SEQ ID NOs: 19, 20) signal” value [6] is reported as 2.11.

EGIRCTPIWMCEGF [Phage-1774] was tested, and the “Anti-PSMA Fab signal” value [5] was 0.0778 and the “Anti-PSMA Fab (SEQ ID NOs: 19, 20) signal” value [6] was 2.09.

With IPKSCIPSWMCTGF [Phage-1775 (clonal phage displaying the peptide of SEQ ID NO: 2071)] the “Anti-PSMA Fab signal” value [7] was 0.101 and the “Anti-PSMA Fab (SEQ ID NOs: 19, 20) signal” value [8] was 2.08.

In the case of LTKLCIPDWMCSEF [Phage-1776 (clonal phage displaying the peptide of SEQ ID NO: 2072)], the “Anti-PSMA Fab signal” value [7] is reported as 0.0876 and the “Anti-PSMA Fab (SEQ ID NOs: 19, 20) signal” value [8] is reported as 2.07.

With LDNWCKPSWMCTGF [Phage-1777 (clonal phage displaying the peptide of SEQ ID NO: 2073)] the “Anti-PSMA Fab signal” value [7] was 0.0633 and the “Anti-PSMA Fab (SEQ ID NOs: 19, 20) signal” value [8] was 2.05.

For EFKWCIPSWMCHET [Phage-1778 (clonal phage displaying the peptide of SEQ ID NO: 2074)], the “Anti-PSMA Fab signal” value [7] was 0.0857 and the “Anti-PSMA Fab (SEQ ID NOs: 19, 20) signal” value [8] was 2.02.

In the case of VVKACIPTWMCQFV [Phage-1779 (clonal phage displaying the peptide of SEQ ID NO: 2075)], the “Anti-PSMA Fab signal” value [7] is reported as 0.0901 and the “Anti-PSMA Fab (SEQ ID NOs: 19, 20) signal” value [8] is reported as 2.02.

VTKWCIPPWMCEVT (also called Peptide-230) [Phage-1780 (clonal phage displaying the peptide of SEQ ID NO: 2076)] was tested, and the “Anti-PSMA Fab signal” value [7] was 0.0864 and the “Anti-PSMA Fab (SEQ ID NOs: 19, 20) signal” value [8] was 2.

In the case of DLRLCKPAWMCDFI [Phage-1781 (clonal phage displaying the peptide of SEQ ID NO: 2077)], the “Anti-PSMA Fab signal” value [7] is reported as 0.0601 and the “Anti-PSMA Fab (SEQ ID NOs: 19, 20) signal” value [8] is reported as 1.95.

LDKWCVPKWMCSGL [Phage-1782 (clonal phage displaying the peptide of SEQ ID NO: 2078)] was tested, and the “Anti-PSMA Fab signal” value [7] was 0.0742 and the “Anti-PSMA Fab (SEQ ID NOs: 19, 20) signal” value [8] was 1.92.

For GEKWCIPDWMCSGF [Phage-1783 (clonal phage displaying the peptide of SEQ ID NO: 2079)], the “Anti-PSMA Fab signal” value [7] was 0.148 and the “Anti-PSMA Fab (SEQ ID NOs: 19, 20) signal” value [8] was 1.91.

With LEKTCIPTWMCVGF [Phage-1784 (clonal phage displaying the peptide of SEQ ID NO: 2080)] the “Anti-PSMA Fab signal” value [7] was 0.0732 and the “Anti-PSMA Fab (SEQ ID NOs: 19, 20) signal” value [8] was 1.88.

In the case of VEKLCTPIWMCLGF [Phage-1785 (clonal phage displaying the peptide of SEQ ID NO: 2081)], the “Anti-PSMA Fab signal” value [7] is reported as 0.0705 and the “Anti-PSMA Fab (SEQ ID NOs: 19, 20) signal” value [8] is reported as 1.84.

In the case of DVKLCKPEWMCYGL [Phage-1786 (clonal phage displaying the peptide of SEQ ID NO: 2082)], the “Anti-PSMA Fab signal” value [7] is reported as 0.0637 and the “Anti-PSMA Fab (SEQ ID NOs: 19, 20) signal” value [8] is reported as 1.75.

— US20260242478A1 (published 2026)
